“And” between values parts separate entries of the source, which are not always exact repeats. Identical values can stand only once. “Also recorded” adds a separate entry of the source.
Key:
[1] = Bell et al. 2000; cited from earlier work
[2] = Photobleaching curves on glass slides under continuous illumination; assay type: physicochemical; conditions: immobilized on glass slides, 130 W mercury lamp, 45 min
Experimental: Photobleaching experiments were performed on fluorescein, EGFP and 24-2-DFHBI complexes immobilized on chemically functionalized glass slides (MicroSurfaces). To immobilized fluorescein, fluorescein cadaverine (Sigma-Aldrich) was reacted in 40 mM HEPES pH 8.0 with NHS-activated glass slides for 2 h at 25° C. Slides were then incubated in 100 mM Tris pH 8.0 to quench any unreacted NHS-activated sites. […] To immobilize 24-2-DFHBI, a 3′ amine modified 21-nt DNA oligo (sequence: 5′-GGTTGTAAGTTTTAGGTTGCC-NH2-3′, SEQ ID NO: 45; Integrated DNA Technologies) was reacted with NHS-activated glass slides. Unreacted NHS-activated sites were blocked as above. 24-2 RNA was then in vitro synthesized with a 5′ overhang complimentary to the immobilized DNA oligo. Purified 24-2 RNA was denatured at 65° C. and incubated with the slide at 25° C. for 20 min to allow hybridization to the immobilized oligonucleotide. […] Images were captured every 10 s with a CoolSnap HQ2 CCD camera through a 10× air objective mounted on a Nikon TE2000 microscope and analyzed with the NIS-Elements software. […] Total fluorescence was then plotted against exposure time and normalized to the maximum intensity of each fluorophore.

streptavidin = streptavidin (Streptomyces avidinii, UniProt P22629); assay: Spinach-based protein sensor fluorescence activation; assay type: biochemical; conditions: micromolar concentrations of protein, DFHBI included
Text: Using the same strategy from Example 5-7, a streptavidin aptamer (Srisawat and Engelke, “Streptavidin Aptamers: Affinity Tags for the Study of RNAs and Ribonucleoproteins, RNA 7:632-41 (2001), which is hereby incorporated by reference in its entirety) was fused to Spinach, and the transducer domain was optimized. The resulting RNA molecule is illustrated in FIG. 16A. The sensor was separately exposed to solutions containing micromolar concentrations of streptavidin, ovalalbumin, BSA, and lysozyme. […] Thus, the approach is generalizable not just to small molecules, but also proteins.

[3] = Spinach-based RNA sensor fluorescence in response to ADP; assay type: biochemical
Experimental: (§2) Dose-response curves for each sensor in response to the target metabolite were determined by measuring the increase in fluorescence as a function of increasing target concentration in the presence of a fixed concentration of RNA sensor (10-50 nM) and a fixed concentration of fluorophore (10 μM). Curves were determined using a nonlinear regression analysis in Prism software and matched by least squares fitting to a standard dose-response model for 1:1 complexation.
(§3) The optimal sensors were chosen based on their low fluorescence in the absence of metabolite and the relative increase in fluorescence upon binding to the metabolite.

[4] = Sensor activation rate, ADP sensor; assay type: biochemical; conditions: 1 mM ADP, 37° C.
Experimental: (§1) A solution of RNA sensor (1 μM) and DFHBI (10 μM) was incubated with continuous stirring at 37° C. in a buffer containing 40 mM HEPES pH 7.4, 125 mM KCl and 1 mM MgCl2. The target metabolite (1 mM) was then rapidly added to the stirring solutions and fluorescence emission was recorded over a 15 min period under continuous illumination at 37° C. using the following instrumental parameters: excitation wavelength, 460 nm; emission wavelength, 500 nm; increment of data point collection, 0.05 s; slit widths, 10 nm. The fluorescence increase was then plotted against exposure time and normalized to the maximum intensity of each fluorophore.

[5] = system: endogenous ADP levels in living E. coli cells; assay: Live cell imaging of ADP dynamics with the ADP sensor; assay type: cell-based; conditions: 200 μM DFHBI
Experimental: BL21-A Star E. coli cells (Invitrogen) were transformed with 40 ng of plasmid DNA expressing the tRNA-sensor chimeras in pET28c under the control of a T7 promoter. Cells were plated, grown overnight and single colonies were picked for inoculation in Luria Broth containing kanamycin (LB-Kan). At OD600=0.4, 1 mM of IPTG was added to the culture and shaking was continued at 37° C. for more 2 hours. 100 uL of culture was then removed, spun down to pelleted the culture, and resuspended in 2 mL of pH 6.0 M9 minimal media. A 200 μl aliquot of resuspended culture was then plated on poly-L-lysine (PLL)-coated 24-well glass-bottom dishes (MatTek) and incubated for 45 minutes at 37° C. Adherent cells were washed twice and then incubated with 200 μM DFHBI in pH 6.0 M9 minimal media for 45 min at 37° C. Cells then were washed twice and incubated with M9 media containing 200 μM DFHBI and the appropriate carbon source (2 mg/ml glucose, 6.65 mg/ml potassium acetate, 4.05 mg/ml glycerol or 5.51 mg/ml succinate). Live fluorescence images were taken with a CoolSnap HQ2 CCD camera through a 60× oil objective mounted on a Nikon TE2000 microscope and analyzed with the NIS-Elements software. The filter set used was a sputter coated filter cube with excitation filter 470/40, dichroic mirror 495 (long pass) and emission filter 525/50 (Chroma Technology).
Cells transformed with ADP sensor were grown overnight in LB-Kan. Cultures were then diluted to OD600=0.1 in 200 mL LB-Kan and grown to OD600=0.4. Cells were then induced for 2 hours with 1 mM IPTG at 37° C. with constant shaking. The entire culture was split in two samples and then placed in a centrifuged for 5 min at 1,000×g. Pellets were then washed once and resuspended in […] of M9 media containing 200 μM DFHBI and either 2.00 mg/ml glucose or 6.68 mg/ml potassium acetate as the carbon source. […] Aliquots of culture were removed every 30 min, pelleted, lysed, and ADP levels were measured with an ADP Fluorometric Assay Kit (Abcam) according to manufacturer's instructions.

[6] = Spinach-based RNA sensor fluorescence in response to SAM; assay type: biochemical
Experimental: as §2, §3

[7] = Sensor activation rate, SAM sensor; assay type: biochemical; conditions: 1 mM SAM, 37° C.
Experimental: as §1

[8] = system: endogenous SAM levels in living E. coli cells; assay: Live cell imaging of SAM accumulation with the SAM sensor; assay type: cell-based; design: average increase in SAM levels upon treatment with methionine: dose or concentration left out as unconfirmed
Experimental: Expression of the SAM aptamer and intracellular imaging was performed as described above for the ADP sensor: BL21-A Star E. coli cells (Invitrogen) were transformed with 40 ng of plasmid DNA expressing the tRNA-sensor chimeras in pET28c under the control of a T7 promoter. Cells were plated, grown overnight and single colonies were picked for inoculation in LB-Kan. At OD600=0.4, 1 mM of IPTG was added to the culture and shaking was continued at 37° C. for more 2 hours. 100 μL of culture was then removed, spun down to pellet the culture, and resuspended in 2 mL of pH 6.0 M9 minimal media. A 200 μl aliquot of resuspended culture was then plated on PLL-coated 24-well glass-bottom dishes (MatTek) and incubated for 45 minutes at 37° C. Adherent cells were washed twice and then incubated with 200 μM DFHBI in pH 6.0 M9 minimal media for 2 hours at 37° C. Cells were then treated with methionine alone or methionine with inhibitors by adding 2 μl of a 100× stock of the compound to a final concentration of 50 μg/ml for L-methionine, 25 μM for adenosine periodate, and 2.5 μM for MT-DADMe-ImmA. Live fluorescence images were taken with a CoolSnap HQ2 CCD camera through a 60× oil objective mounted on a Nikon TE2000 microscope and analyzed with the NIS-Elements software. The filter set used was a sputter coated filter cube with excitation filter 470/40, dichroic mirror 495 (long pass) and emission filter 525/50 (Chroma Technology).
Cells transformed with SAM sensors were grown overnight in LB-Kan. Cultures were then diluted to OD600=0.1 in 200 mL LB-Kan and grown to OD600=0.4. Cells were then induced for 2 hours with 1 mM IPTG at 37° C. with constant shaking. The entire culture was centrifuged for 5 min at 1,000×g, pellets were resuspended and washed once with M9 media and then resuspended in […] of M9 media containing 200 μM DFHBI and divided into two samples. Methionine (50 μg/ml) or vehicle was then added to either sample and cultures were incubated between 32-37° C. 25 ml aliquots were removed from methionine- and vehicle-treated sample at each time point, centrifuged for 5 min at 1,000×g, and flash frozen in liquid nitrogen. Cells were thawed on ice and lysed by resuspending the pellet in 300 μl of cold 4% perchloric acid. Insoluble material was then pelleted by spinning at 1,000×g for 5 min and the supernatant was transferred to a dialysis spin column with a 10,000 molecular weight cut off (Amicon) and spun at 10,000×g for 10 min at 4° C. A portion of the flow through (50 μl) was then injected on a Zorbax C8 column (Agilent) on an Agilent 1100 HPLC. Samples were loaded and eluted for 15 min with an aqueous buffer containing 3.6% acetonitrile, 40 mM ammonium phosphate, and 5 mM sodium 1-heptanesulfonate which was brought to pH 5.0 with hydrochloric acid. After each sample was eluted, the column was washed with a gradient of 3.6-25% acetonitrile for 30 min prior to the next samples being injected. SAM standards were used to calibrate SAM levels measured using this assay.
Population analysis was carried out using NIS-Elements software. Individual cells in a captured field were manually traced as Region of Interests (ROIs) and tracked through the different time points of image capture. Fluorescence intensity was then calculated by dividing the total fluorescence by the area for each ROI, which gives the mean intensity per unit area. Fold increase in fluorescence over time is calculated as the ratio of mean intensity at a desired time point and at time zero. Values in fold increase in fluorescence over time are plotted as frequency distributions or further used in statistical analyses.

[9] = Emission and excitation of aptamer-DFAN complex; assay type: physicochemical; conditions: aptamer with DFAN

Chain of streptavidin (P22629 25-183, species assumed): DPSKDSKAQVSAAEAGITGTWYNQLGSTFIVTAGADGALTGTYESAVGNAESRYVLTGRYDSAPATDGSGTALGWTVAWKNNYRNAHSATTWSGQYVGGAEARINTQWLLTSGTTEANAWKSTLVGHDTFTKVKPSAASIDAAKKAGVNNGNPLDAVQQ

## CC1=NC(=Cc2ccc(O)cc2)C(=O)N1C [HBI, 4-(4-hydroxybenzylidene)-1,2-dimethyl-imidazol-5-one]
[1]
  pKa: 8.1

B1: Spinach: first generation derivative of 24-2, DFHBI-binding RNA aptamer (nucleic acid)
chain 1: GACGCGACUGAAUGAAAUGGUGAAGGACGGGUCCAGGUGUGGCUGCUUCGGCAGUGCAGCUUGUUGAGUAGAGUGUGAGCUCCGUAACUAGUCGCGUC
chain 2: GACGCAACUGAAUGAAAUGGUGAAGGACGGGUCCAGGUGUGGCUGCUUCGGCAGUGCAGCUUGUUGAGUAGAGUGUGAGCUCCGUAACUAGUCGCGUC
modifications: listed as RNA, chemistry not given here
[2]
  photobleaching during continuous illumination: remarkable resistance to photobleaching

B2: Spinach-streptavidin sensor: Spinach-based streptavidin sensor RNA molecule (nucleic acid)
chain: GACGCGACUGAAUGAAAUGGUGAAGGACGGGUCCACGACCGACCAGAAUCAUGCAAGUGCGUAAGAUAGUCGCGGGCCGGGGUUGUUGAGUAGAGUGUGAGCUCCGUAACUAGUCGCGUC
modifications: listed as RNA, chemistry not given here
notes: Spinach-based streptavidin sensor RNA molecule
streptavidin
  fluorescence activation by BSA, ovalbumin or lysozyme: fail to increase fluorescence above background levels
  fluorescence activation by streptavidin: specific fluorescence activation occurs only in solutions that contained streptavidin

B3: ADP sensor: Spinach-based turn-on RNA sensor for ADP, transducer stem 3 (nucleic acid)
chain: GACGCGACUGAAUGAAAUGGUGAAGGACGGGUCCAGCACGAGGGGGAAACCCCGGACAAUCAGACACGGUGCUUGUUGAGUAGAGUGUGAGCUCCGUAACUAGUCGCGUC
modifications: listed as RNA, chemistry not given here
[3]; 10 μM DFHBI, 1 mM ADP, versus no ADP
  increase in fluorescence in the presence of ADP: 20 fold and 18 fold
[3]; 1 mM competing molecules
  molecular discrimination: activation by ATP, AMP, cAMP, NAD+: negligibly activated; also recorded: specific for ADP
[3]; dose-response, 10 μM fluorophore, read-out: half-maximal fluorescence (EC50), ADP
  EC50: 270 µM
[4]
  time to increase in fluorescence after ADP addition: less than 10 s
[5]
  sensor fluorescence after switch to succinate or glycerol: did not substantially increase fluorescence
[5]; by 3 hr
  increase in sensor fluorescence over baseline after switch from glucose to acetate media: ~6 fold
[5]; within 30 min
  increase in sensor fluorescence over baseline after switch from glucose to acetate media: 1.8 fold

B4: SAM sensor: Spinach-based turn-on RNA sensor for SAM, transducer stem 1 (nucleic acid)
chain: GACGCGACUGAAUGAAAUGGUGAAGGACGGGUCCACGAAAGGAUGGCGGAAACGCCAGAUGCCUUGUAACCGAAAGGGUUGUUGAGUAGAGUGUGAGCUCCGUAACUAGUCGCGUC
modifications: chemistry not given here
[6]; 10 μM DFHBI, 1 mM SAM, versus no SAM
  increase in fluorescence in the presence of SAM: 25 fold and 24 fold
[6]; 1 mM
  molecular discrimination: fluorescence with methionine or adenosine: negligibly fluorescent; also recorded: negligible signal above background
[6]; 1 mM SAH
  molecular discrimination: fluorescence with SAH: only minimal fluorescence; also recorded: negligible signal
[6]; dose-response, 10 μM fluorophore, read-out: half-maximal fluorescence (EC50), SAM
  EC50: 120 µM
[7]; 1 μM RNA sensor, 10 μM DFHBI
  time to maximal fluorescence after SAM addition: ≤ 10 min
[7]
  time to increase in fluorescence after SAM addition: less than 10 s
[8]; 50 μg/ml methionine, 3 hr
  average increase in sensor fluorescence in methionine-treated cells: over 6 fold
[8]; methionine, 180 min (FIG. 9D)
  average increase in SAM levels upon treatment with methionine: six-fold

B5: SEQ ID NO: 59: RNA aptamer listed for fluorophore DFAN (nucleic acid)
chain: GGGAGACGCAACUGAAUGAAAUACUUGGGAUGGUAAUGGCCUGGAGCUGCUUCGGCAGACCCGUGCAAGGACGUGGGAGAGGGGUCCGUAACUAGUCGCGUCAC
modifications: listed as RNA, chemistry not given here
[9]
  Em: Em = 550 nm
  Ex: Ex = 480 nm
